Reference: publication PMC8533099, “Kinetic Analysis of the Interaction of Nicking Endonuclease BspD6I with DNA”

Legend:
Settings in all cases: blunt
Nt.BspD6I [1] = biological target: T1, Nt.BspD6I (UniProt A3FEV7 1-604); assay: stopped-flow Trp fluorescence; 10 mM Ca2+; Stopped-flow, 37 °C, 10 mM CaCl2 or 10 mM MgCl2 (or 0.4 mM EDTA without divalent metal); 1 µM enzyme (Trp) or 1 µM DNA (FRET); buffer, salt and pH not in the supplied text
T1 sequence: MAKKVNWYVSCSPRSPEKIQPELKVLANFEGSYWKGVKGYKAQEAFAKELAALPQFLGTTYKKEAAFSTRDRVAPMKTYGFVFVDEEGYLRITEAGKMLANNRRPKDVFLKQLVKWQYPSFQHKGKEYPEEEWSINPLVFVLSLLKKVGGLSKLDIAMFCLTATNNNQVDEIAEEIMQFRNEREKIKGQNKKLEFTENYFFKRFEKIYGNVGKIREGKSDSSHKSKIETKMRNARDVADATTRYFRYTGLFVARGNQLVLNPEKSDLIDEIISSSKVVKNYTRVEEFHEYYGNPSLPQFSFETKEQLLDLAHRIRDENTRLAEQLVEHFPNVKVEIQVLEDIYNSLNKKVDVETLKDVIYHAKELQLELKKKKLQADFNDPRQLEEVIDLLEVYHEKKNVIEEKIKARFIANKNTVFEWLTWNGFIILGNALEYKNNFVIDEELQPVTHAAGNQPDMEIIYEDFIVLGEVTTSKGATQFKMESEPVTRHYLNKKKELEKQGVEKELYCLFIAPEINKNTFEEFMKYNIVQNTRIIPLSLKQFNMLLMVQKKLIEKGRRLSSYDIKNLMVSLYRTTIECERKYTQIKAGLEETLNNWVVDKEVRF

Nt.BspD6I [2] = biological target: T1, Nt.BspD6I; assay: stopped-flow Trp fluorescence; 10 mM Mg2+; Stopped-flow, 37 °C, 10 mM CaCl2 or 10 mM MgCl2 (or 0.4 mM EDTA without divalent metal); 1 µM enzyme (Trp) or 1 µM DNA (FRET); buffer, salt and pH not in the supplied text
Nt.BspD6I [3] = biological target: T1, Nt.BspD6I; assay: stopped-flow Trp fluorescence; 0.4 mM EDTA, no divalent metal; Stopped-flow, 37 °C, 10 mM CaCl2 or 10 mM MgCl2 (or 0.4 mM EDTA without divalent metal); 1 µM enzyme (Trp) or 1 µM DNA (FRET); buffer, salt and pH not in the supplied text
Nt.BspD6I [4] = biological target: T1, Nt.BspD6I; assay: stopped-flow Trp fluorescence; 10 mM Ca2+; kobs k1 261 s-1, k2 6.2 s-1; Stopped-flow, 37 °C, 10 mM CaCl2 or 10 mM MgCl2 (or 0.4 mM EDTA without divalent metal); 1 µM enzyme (Trp) or 1 µM DNA (FRET); buffer, salt and pH not in the supplied text
Nt.BspD6I [5] = biological target: T1, Nt.BspD6I; assay: stopped-flow Trp fluorescence; 10 mM Mg2+; kobs k1 232 s-1, k2 21 s-1; Stopped-flow, 37 °C, 10 mM CaCl2 or 10 mM MgCl2 (or 0.4 mM EDTA without divalent metal); 1 µM enzyme (Trp) or 1 µM DNA (FRET); buffer, salt and pH not in the supplied text
Nt.BspD6I [6] = biological target: T1, Nt.BspD6I; assay: stopped-flow Trp fluorescence; 10 mM Mg2+; kobs k1 126 s-1, k2 7.0 s-1; Stopped-flow, 37 °C, 10 mM CaCl2 or 10 mM MgCl2 (or 0.4 mM EDTA without divalent metal); 1 µM enzyme (Trp) or 1 µM DNA (FRET); buffer, salt and pH not in the supplied text
Nt.BspD6I [7] = biological target: T1, Nt.BspD6I; assay: stopped-flow Trp fluorescence; 10 mM Mg2+; kobs k1 145 s-1, k2 10.0 s-1; Stopped-flow, 37 °C, 10 mM CaCl2 or 10 mM MgCl2 (or 0.4 mM EDTA without divalent metal); 1 µM enzyme (Trp) or 1 µM DNA (FRET); buffer, salt and pH not in the supplied text
Nt.BspD6I [8] = biological target: T1, Nt.BspD6I; assay: stopped-flow Trp fluorescence; 10 mM Mg2+; kobs k1 490 s-1, k2 128 s-1; Stopped-flow, 37 °C, 10 mM CaCl2 or 10 mM MgCl2 (or 0.4 mM EDTA without divalent metal); 1 µM enzyme (Trp) or 1 µM DNA (FRET); buffer, salt and pH not in the supplied text

B1: VI-30N (dsDNA)
DNA 1: GTATGAAGCTAGAGCCAGGTTGGCAGCATC
DNA 2: GATGCTGCCAACCTGGCTCTAGCTTCATAC
With B1 the Kd (Nt.BspD6I [1]) was 60 ± 20 nM and the Kd (Nt.BspD6I [2]) was 70 ± 20 nM.

B2: VI-30 (dsDNA)
DNA 1: GCGTGGTCTCGAGTCTTCTCAAGGTACCTG
DNA 2: CAGGTACCTTGAGAAGACTCGAGACCACGC
Binder B2 has a Kd (Nt.BspD6I [3]) of 13 ± 3 nM.

B3: II-19 (dsDNA)
DNA 1: GGTCTCGAGTCTTCTCAAG
DNA 2: CTTGAGAAGACTCGAGACC
B3: binds (Nt.BspD6I [4]).

B4: III-21 (dsDNA)
DNA 1: GGTCTCGAGTCTTCTCAAGGT
DNA 2: ACCTTGAGAAGACTCGAGACC
B4: binds (Nt.BspD6I [5]).

B5: V-26 (dsDNA)
DNA 1: CGTGGTCTCGAGTCTTCTCAAGGTAC
DNA 2: GTACCTTGAGAAGACTCGAGACCACG
B5: binds (Nt.BspD6I [6]).

B6: IV-23 (dsDNA)
DNA 1: GGTCTCGAGTCTTCTCAAGGTAC
DNA 2: GTACCTTGAGAAGACTCGAGACC
B6: binds (Nt.BspD6I [7]).

B7: I-17 (dsDNA)
DNA 1: GGTCTCGAGTCTTCTCA
DNA 2: TGAGAAGACTCGAGACC
B7: binds (Nt.BspD6I [8]).
